From the supplement of paper PMC9170038

Test system: MS2 coat protein
Experiment: apparent KD of MS2 coat protein; designed switch direction (-1 OFF switch, 1 ON switch): 1; higher = weaker reporter binding
In short: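 Transcription of designed RNA switches on Illumina chips was done by stalled E. coli RNA polymerase. SNAP-549-labelled MS2 coat protein was then titrated in doubling steps from 0.7 or 1.5 nM to 3 µM, with steps of 0.8–1.5 h at the lowest and 10–20 min at the highest concentration. The per-design median over clusters of curve-fitted normalised fluorescence is reported as apparent KD.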

[1] = Eterna round: R95, input ligand: FMN 200 uM
[2] = Eterna round: R95, input ligand: microRNA oligo, concentration not stated
[3] = Eterna round: R95, input ligand: none
[4] = input ligand: microRNA oligo, concentration not stated

Sequence	apparent KD of MS2 coat protein [1]	apparent KD of MS2 coat protein [2]	apparent KD of MS2 coat protein [3]	apparent KD of MS2 coat protein (input ligand: FMN 200 uM)	apparent KD of MS2 coat protein [4]	apparent KD of MS2 coat protein (input ligand: none)
GGUCCAGCCUGAGCUGGACAAAAGCAUGUACAUGAGGAUCACCCAUGUUCAUGUACAAGCUUUUUGCUCGUCUUACU [salish99_208a_r3_085] (puzzle: Sensor for hsa-mir-208a)	681 nM	15 nM	553 nM	–	–	–
GGUCCAGCCUGAGCUGGACCGAAGCAUGUACAUGAGGAUCACCCAUGUCAUGUACAAGCUUUUUGCUCGUCUUAUUG [JL-shm-2.09 JL Mod] (puzzle: Sensor for hsa-mir-208a)	307 nM	14.9 nM	285 nM	–	–	–
GGUCCAUCAUGAGGAUAUGGCACCUUAUUGGUGCCAGAAGGCAUGUAAAUUAUAAUAACAUGAGGAUCACCCAUGUAUUGGACC [Eli NG1ss - 95] (Eterna round: R96, puzzle: Same State NG 1)	–	–	–	44.6 nM	218 nM	492 nM
GGUCGGACUCACAUGAGGAUCACCCAUGUUGCGGAAACGCAGCAGGAUAUCUGUCCGAAAAGGUCAGAGAAGGGCUAACCGACC [Fiskers NG3ss - 57] (Eterna round: R96, puzzle: Same State NG 3)	–	–	–	197 nM	596 nM	1310 nM
GGUCGGACUCACAUGAGGAUCACCCAUGUUGCGGAAACGCGGCAGGAUAUCUGUCCGAAAAGGUCAGAGAAGGGCUAACCGACC [Fiskers NG3ss - 56] (Eterna round: R96, puzzle: Same State NG 3)	–	–	–	52.2 nM	254 nM	343 nM
GGUGCUGUCACAGGAUAUCAUGCGGAAAUCGCGUGAGAAGGGUGGACUCUGUCAUUCACGGAGGACAUGAGGAUCACCCAUGUG [SS NG10LRO20] (Eterna round: R96, puzzle: Same State NG 1)	–	–	–	68.5 nM	5.67 nM	20.2 nM
GGUGGGUUACUACCAACACAUGAGGAUCACCCAUGUUUUGGGAAGGAUAUGGUACCUAUUUGGUACCAGAAGGUCCAGUUAGUG [salish99_SSNG3_r04_703] (Eterna round: R96, puzzle: Same State NG 3)	–	–	–	61.9 nM	37.7 nM	40 nM
GGUGGGUUGCUACCGACACAUGAGGAUCACCCAUGUUUUGGGAAGGAUAUGGUACCUAUUUGGUACCAGAAGGUCCCGUUGGUG [salish99_SSNG3_r04_707] (Eterna round: R96, puzzle: Same State NG 3)	–	–	–	136 nM	136 nM	133 nM
GGUGUACAUGAGGAUCACCCAUGUCGACCGCUCACAGGAUAUUUAUUACAAACUGGUAGCGGAGAAGGGUGAGGGC [Maarraar] (puzzle: Same State 1)	36.4 nM	32.6 nM	37.6 nM	–	–	–
GGUUGUUAGUGAGGAUAUACGUACACUCUACAUGAGGAUCACCCAUGUUUUGCCCUUGAUUGUUGGUAGAAGGCACUUGGUUAU [JR_SSNG2_Sub050] (Eterna round: R96, puzzle: Same State NG 2)	–	–	–	40.7 nM	84.7 nM	87.3 nM
GGUUUAGUCAAGCGCAGUUGCACUUGAAAACAUGAGGAUCACCCAUGUUUGGGACAAGCUUUGCUCCUCGUCUUUCC [Dicebior] (puzzle: Sensor for hsa-mir-208a)	194 nM	78.2 nM	386 nM	–	–	–
GUACAUAUCAGAGGAUAUCACGUCGUUUAGACGUGAGAAGGCUGAUCACACAUGAAUAUUAAUACAUGAGGAUCACCCAUGUAC [SSNG1/13-A3] (Eterna round: R96, puzzle: Same State NG 1)	–	–	–	23.8 nM	31.2 nM	32.7 nM
GUAGCAUACCGAGGAUAUUCAUAAUACAUGAGGAUCACCCAUGUAAGGCCACAUUAGUGGCCUUGGGAGAAGGCGGAAUGCUAC [Xeonanis - 20 Mod43] (Eterna round: R96, puzzle: Same State NG 2)	–	–	–	13.7 nM	35.7 nM	44 nM
GUAGCAUACCGAGGAUAUUCAUACCGGAAACGGACAUGAGGAUCACCCAUGUGGCGAAAGCCUUGGGAGAAGGCGGAAUGCUAC [Xeonanis - 20 Mod75] (Eterna round: R96, puzzle: Same State NG 2)	–	–	–	18.4 nM	341 nM	675 nM
GUAGCAUACCGAGGAUAUUCAUAUAAUAAAUAACAUGAGGAUCACCCAUGUAGGCGAAAGCCUUGGGAGAAGGCGGAAUGCUAC [Xeonanis - 20 Mod57] (Eterna round: R96, puzzle: Same State NG 2)	–	–	–	13.5 nM	108 nM	112 nM
GUAGCAUACCGAGGAUAUUCAUAUAAUAACAUGAGGAUCACCCAUGUUUAUAGGCGAAAGCCUUGGGAGAAGGCGGAAUGCUAC [Xeonanis - 20 Mod63] (Eterna round: R96, puzzle: Same State NG 2)	–	–	–	10.4 nM	12.3 nM	18.8 nM
GUAGCAUACCGAGGAUAUUCAUAUAAUAAUAACAUGAGGAUCACCCAUGUAAGGCGAAAGCCUUGGGAGAAGGCGGAAUGCUAC [Xeonanis - 20 Mod60] (Eterna round: R96, puzzle: Same State NG 2)	–	–	–	11.6 nM	30 nM	63.6 nM
GUAGCAUACCGAGGAUAUUCAUAUACAUGAGGAUCACCCAUGUUUAGGCCACAUUAGUGGCCUUGGGAGAAGGCGGAAUGCUAC [Xeonanis - 20 Mod44] (Eterna round: R96, puzzle: Same State NG 2)	–	–	–	13 nM	15.7 nM	23.4 nM
GUAGCAUACCGAGGAUAUUCAUAUACAUGAGGAUCACCCAUGUUUAUAGGCCGAUUACGGCCUUGGGAGAAGGCGGAAUGCUAC [Xeonanis - 20 Mod25] (Eterna round: R96, puzzle: Same State NG 2)	–	–	–	11.7 nM	9.52 nM	17.6 nM
GUAGCAUACCGAGGAUAUUCAUAUUAACAUGAGGAUCACCCAUGUUGGCCACAUUAGUGGCCUUGGGAGAAGGCGGAAUGCUAC [Xeonanis - 20 Mod38] (Eterna round: R96, puzzle: Same State NG 2)	–	–	–	19.6 nM	107 nM	140 nM
GUAGCAUACCGAGGAUAUUCAUAUUAUAACAUGAGGAUCACCCAUGUAGGCCGAUUACGGCCUUGGGAGAAGGCGGAAUGCUAC [Xeonanis - 20 Mod19] (Eterna round: R96, puzzle: Same State NG 2)	–	–	–	27.9 nM	229 nM	342 nM
GUAGCAUACCGAGGAUAUUCAUAUUAUAACAUGAGGAUCACCCAUGUAGGUCGAUUACGACCUUGGGAGAAGGCGGAAUGCUAC [Xeonanis - 20 Mod35] (Eterna round: R96, puzzle: Same State NG 2)	–	–	–	34.7 nM	307 nM	210 nM
GUAGCAUGCAGCGAGGAUAUUCAUAUUAAAACAUGAGGAUCACCCAUGUAGGCCAAAAGGCCUUGGGAGAAGGCGCACAUGCUAC [Xeonanis - 20] (Eterna round: R96, puzzle: Same State 2)	–	–	–	37.8 nM	360 nM	536 nM
GUAGCAUGCAGCGAGGAUAUUCAUAUUAAAACAUGAGGAUCACCCAUGUAGGCCAAAAGGCCUUGGGAGAAGGCGCACAUGCUAC [Xeonanis - 20] (puzzle: Same State 2)	31.2 nM	527 nM	717 nM	–	–	–
GUCAGGUAAGCUUUUUUCUCGUAGUGUAAACAUGAGGAUCACCCAUGUGCUCACCCUGGAUCUUUGGAUCGCAGAAA [Atormace] (puzzle: Sensor for hsa-mir-208a)	16.5 nM	14.3 nM	17.1 nM	–	–	–
GUGCGGGUAAGAGGAUAUACAAAUUCUCGUUCUGAGACGAGAACAUGAGGAUCACCCAUGUCUAAGUAGAAGGUUUCAGGCACC [Eternabot solution 28] (Eterna round: R96, puzzle: Same State NG 2)	–	–	–	21.3 nM	18.2 nM	23 nM
GUGCUCGUGUAAGGAUAUGCUUCCGUUUCGGCUGCAGAAGGUACUAUAAUACAUGAGGAUCACCCAUGUCUCUUUUGUUUGGUG [salish99_SSNG1_r04_908] (Eterna round: R96, puzzle: Same State NG 1)	–	–	–	86.1 nM	58.6 nM	76.5 nM
GUGCUCGUGUGAGGAUAUGCUGCCGGGUCGGCUGCAGAAGGUACUAUUAUACAUGAGGAUCACCCAUGUCGCUUUUCUCCGGUG [salish99_SSNG1_r04_918] (Eterna round: R96, puzzle: Same State NG 1)	–	–	–	–	34.1 nM	–
GUGGAGGGUUGAGGAUAUUGAAUACAUAUGUUUAACAUGAGGAUCACCCAUGUGGGUUGCGGUAUCGAGAAGGUAAGUUGCUGG [salish99_SSNG2_r04_038] (Eterna round: R96, puzzle: Same State NG 2)	–	–	–	105 nM	94.2 nM	89.3 nM
GUGGCCCAGGCACAGGAUAUGUUUCUCGUAACAUGAGGAUCACCCAUGUGCCUAUGAGAUUUUUUGCAGAAGGGUGCACGCCACG [JL Atiinbe mod 02] (puzzle: Same State 2)	–	134 nM	–	–	–	–
